{"source": "IntAct's records for PubMed 29892012", "parents": {"B1": {"name": "Solute carrier family 35 member C2 (Homo sapiens), Q9NQQ7 (parent)", "chain": "MGRWALDVAFLWKAVLTLGLVLLYYCFSIGITFYNKWLTKSFHFPLFMTMLHLAVIFLFSALSRALVQCSSHRARVVLSWADYLRRVAPTALATALDVGLSNWSFLYVTVSLYTMTKSSAVLFILIFSLIFKLEELRAALVLVVLLIAGGLFMFTYKSTQFNVEGFALVLGASFIGGIRWTLTQMLLQKAELGLQNPIDTMFHLQPLMFLGLFPLFAVFEGLHLSTSEKIFRFQDTGLLLRVLGSLFLGGILAFGLGFSEFLLVSRTSSLTLSIAGIFKEVCTLLLAAHLLGDQISLLNWLGFALCLSGISLHVALKALHSRGDGGPKALKGLGSSPDLELLLRSSQREEGDNEEEEYFVAQGQQ"}, "B2": {"name": "Casein kinase II subunit alpha (Homo sapiens), P68400 (parent)", "chain": "MSGPVPSRARVYTDVNTHRPREYWDYESHVVEWGNQDDYQLVRKLGRGKYSEVFEAINITNNEKVVVKILKPVKKKKIKREIKILENLRGGPNIITLADIVKDPVSRTPALVFEHVNNTDFKQLYQTLTDYDIRFYMYEILKALDYCHSMGIMHRDVKPHNVMIDHEHRKLRLIDWGLAEFYHPGQEYNVRVASRYFKGPELLVDYQMYDYSLDMWSLGCMLASMIFRKEPFFHGHDNYDQLVRIAKVLGTEDLYDYIDKYNIELDPRFNDILGRHSRKRWERFVHSENQHLVSPEALDFLDKLLRYDHQSRLTAREAMEHPYFYTVVKDQARMGSSSMPGGSTPVSSANMMSGISSVPTPSPLGPLAGSPVIAAANPLGMPVPAAAGAQQ"}, "B3": {"name": "Casein kinase II subunit alpha (Homo sapiens), P68400 (parent)", "chain": "B2 chain", "partner": "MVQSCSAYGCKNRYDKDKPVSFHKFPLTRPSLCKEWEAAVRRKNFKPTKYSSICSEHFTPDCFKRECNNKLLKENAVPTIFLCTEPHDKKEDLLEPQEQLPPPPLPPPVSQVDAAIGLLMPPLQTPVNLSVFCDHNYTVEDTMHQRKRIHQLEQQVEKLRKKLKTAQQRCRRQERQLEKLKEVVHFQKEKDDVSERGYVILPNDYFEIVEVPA"}, "B4": {"name": "Casein kinase II subunit alpha (Homo sapiens), P68400 (parent)", "chain": "B2 chain", "partner": "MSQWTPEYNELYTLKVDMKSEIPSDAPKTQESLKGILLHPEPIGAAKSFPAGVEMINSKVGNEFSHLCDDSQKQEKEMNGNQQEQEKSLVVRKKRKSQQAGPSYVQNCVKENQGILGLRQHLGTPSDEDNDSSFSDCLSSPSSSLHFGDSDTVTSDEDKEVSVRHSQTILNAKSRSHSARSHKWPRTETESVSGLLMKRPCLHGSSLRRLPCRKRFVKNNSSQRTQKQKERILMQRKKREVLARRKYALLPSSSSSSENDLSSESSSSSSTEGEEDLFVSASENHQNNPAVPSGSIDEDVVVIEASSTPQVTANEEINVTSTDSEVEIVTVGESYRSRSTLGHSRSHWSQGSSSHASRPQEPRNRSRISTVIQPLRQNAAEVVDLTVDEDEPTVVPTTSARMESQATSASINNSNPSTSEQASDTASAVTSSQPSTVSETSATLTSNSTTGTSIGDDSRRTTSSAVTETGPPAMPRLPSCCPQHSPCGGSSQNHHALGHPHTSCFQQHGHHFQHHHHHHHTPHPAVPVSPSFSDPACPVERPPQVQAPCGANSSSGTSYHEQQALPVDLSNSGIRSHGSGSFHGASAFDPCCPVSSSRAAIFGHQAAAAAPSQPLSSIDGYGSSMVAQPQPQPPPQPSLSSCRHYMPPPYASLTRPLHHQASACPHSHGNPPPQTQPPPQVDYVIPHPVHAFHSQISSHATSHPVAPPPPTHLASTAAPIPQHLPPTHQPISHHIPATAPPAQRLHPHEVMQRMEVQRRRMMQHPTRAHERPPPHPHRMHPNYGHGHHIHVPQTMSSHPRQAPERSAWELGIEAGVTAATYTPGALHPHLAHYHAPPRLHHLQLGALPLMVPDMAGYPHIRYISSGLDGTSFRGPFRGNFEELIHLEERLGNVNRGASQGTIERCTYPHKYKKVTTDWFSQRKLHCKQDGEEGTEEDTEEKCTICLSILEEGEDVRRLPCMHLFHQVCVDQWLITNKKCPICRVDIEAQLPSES"}, "B5": {"name": "Casein kinase II subunit alpha (Homo sapiens), P68400 (parent)", "chain": "B2 chain", "partner": "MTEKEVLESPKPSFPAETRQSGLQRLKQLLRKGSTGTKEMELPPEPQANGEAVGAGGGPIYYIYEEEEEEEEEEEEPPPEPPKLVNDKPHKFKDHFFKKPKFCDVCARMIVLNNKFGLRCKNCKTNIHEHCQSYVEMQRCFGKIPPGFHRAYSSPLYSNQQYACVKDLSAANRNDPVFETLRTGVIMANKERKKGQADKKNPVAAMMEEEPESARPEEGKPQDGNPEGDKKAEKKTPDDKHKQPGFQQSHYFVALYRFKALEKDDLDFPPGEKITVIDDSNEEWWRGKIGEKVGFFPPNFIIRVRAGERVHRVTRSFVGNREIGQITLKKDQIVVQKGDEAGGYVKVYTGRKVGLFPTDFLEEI"}}}
{"variants_of": "B1", "conditions": "with creb3_human CREB3, O43889"}
{"variant": "G176S", "effect of a mutation on the interaction": "with no effect"}
{"variants_of": "B2", "conditions": "with nfya_human NFYA"}
{"variant": "K198R", "effect of a mutation on the interaction": "with no effect"}
{"variants_of": "B3", "conditions": "with thap1_human THAP1, Q9NVV9"}
{"variant": "K198R", "effect of a mutation on the interaction": "with no effect"}
{"variants_of": "B4", "conditions": "with rn111_human RNF111, Q6ZNA4"}
{"variant": "K198R", "effect of a mutation on the interaction": "with no effect"}
{"variants_of": "B5", "conditions": "with stac3_human STAC3, Q96MF2"}
{"variant": "K198R", "effect of a mutation on the interaction": "with no effect"}
